The test has as its target T1, N-terminally Hexa-His-tagged KDM4A (residues 1–359) (human) (UniProt O75164).
T1 sequence: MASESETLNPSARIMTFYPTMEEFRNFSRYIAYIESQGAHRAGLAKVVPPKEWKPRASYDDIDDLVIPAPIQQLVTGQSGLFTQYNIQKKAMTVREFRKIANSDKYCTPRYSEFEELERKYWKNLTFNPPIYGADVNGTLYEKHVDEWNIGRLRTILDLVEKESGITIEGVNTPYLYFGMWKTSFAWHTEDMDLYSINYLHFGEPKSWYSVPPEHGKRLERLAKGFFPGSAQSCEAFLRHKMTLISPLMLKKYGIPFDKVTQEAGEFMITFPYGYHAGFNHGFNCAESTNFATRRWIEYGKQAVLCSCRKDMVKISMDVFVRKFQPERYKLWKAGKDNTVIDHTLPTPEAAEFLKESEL

In article PMC5384220 one finds IC50 of inhibition of demethylase activity (AlphaScreen method) data, which are given here for one molecule.

B1: PolyR (Arg)9 peptide (peptide)
peptide: RRRRRRRRR
For B1, the IC50 of inhibition of demethylase activity (AlphaScreen method) amounted to 40 nM.
